Measurements taken from US20210137940A1 (AstraZeneca / MedImmune, published 2021).

Target: Prostate-Specific Membrane Antigen (PSMA), as expressed on LNCaP cells (human, UniProt Q04609 1-750)
Assay: cell-based or functional assay

Prostate-Specific Membrane Antigen (PSMA), as expressed on LNCaP cells, sequence (Q04609 whole entry): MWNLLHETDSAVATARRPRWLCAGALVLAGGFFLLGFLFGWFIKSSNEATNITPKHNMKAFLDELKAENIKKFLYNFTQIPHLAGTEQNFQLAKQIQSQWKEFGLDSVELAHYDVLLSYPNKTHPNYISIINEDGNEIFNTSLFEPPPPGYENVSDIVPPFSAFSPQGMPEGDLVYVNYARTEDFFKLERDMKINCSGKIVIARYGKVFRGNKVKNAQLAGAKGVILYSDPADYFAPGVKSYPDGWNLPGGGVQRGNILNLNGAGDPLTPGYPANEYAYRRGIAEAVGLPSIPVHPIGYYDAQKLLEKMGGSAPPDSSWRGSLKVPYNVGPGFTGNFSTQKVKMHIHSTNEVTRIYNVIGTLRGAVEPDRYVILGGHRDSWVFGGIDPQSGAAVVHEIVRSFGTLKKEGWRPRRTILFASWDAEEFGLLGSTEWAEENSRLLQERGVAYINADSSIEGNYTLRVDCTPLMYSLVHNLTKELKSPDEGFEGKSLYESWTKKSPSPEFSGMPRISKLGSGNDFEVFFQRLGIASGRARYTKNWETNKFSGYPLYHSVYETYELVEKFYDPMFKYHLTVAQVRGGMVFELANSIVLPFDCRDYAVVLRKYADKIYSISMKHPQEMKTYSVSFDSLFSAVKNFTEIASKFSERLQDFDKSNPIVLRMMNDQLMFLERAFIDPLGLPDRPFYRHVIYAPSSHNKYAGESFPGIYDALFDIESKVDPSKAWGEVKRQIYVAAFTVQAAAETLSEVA

B1: HAKA-A (ADC of J415RHA+J415RKA anti-PSMA antibody conjugated to drug linker A) (antibody, V domains shown)
VH: EVQLVESGGGLVQPGGSLKLSCAASGFTFSNYWMNWVRQASGKGLEWVGEIRSQSNNFATHYAESVKGRFTISRDDSKNTAYLQMNSLKTEDTAVYYCTRRWNNFWGQGTTVTVSS
VL: DIQMTQSPSSVSASVGDRVTITCKASENVGTYVSWYQQKPGTAPKLLIYGASNRFTGVPSRFSGSGSATDFTLTINNLQPEDFATYYCGQSYTFPYTFGQGTKVEIK
modifications: PBD drug linker A conjugated to reduced cysteine thiols (positions not stated); measured DAR 1.17 per antibody
B1 was tested, and the “EC50 (µg/mL), in vitro cytotoxicity on LNCaP cells (Alamar Blue cell survival, 4-day incubation)” value was 0.00186 µg/mL.

B2: HAKB-A (ADC of J415RHA+J415RKB anti-PSMA antibody conjugated to drug linker A) (antibody, V domains shown)
VH: B1 VH
VL: B1 VL
modifications: PBD drug linker A conjugated to reduced cysteine thiols (positions not stated); measured DAR 1.86 per antibody
For B2, the “EC50 (µg/mL), in vitro cytotoxicity on LNCaP cells (Alamar Blue cell survival, 4-day incubation)” value was 0.00163 µg/mL.
